Patent publication US20180085469A1
One block for each molecule: values may come before it.

Columns and labels:
CD22 (human) [1] = biological target: CD22 (human) (UniProt P20273); experiment: flow cytometry, 697 cells, FITC goat anti-human IgG detection
CD22 (human) [2] = biological target: CD22 (human) (UniProt P20273); experiment: flow cytometry, REH cells, FITC goat anti-human IgG detection
CD22 (human) [3] = biological target: CD22 (human) (UniProt P20273); experiment: flow cytometry, Raji cells, FITC goat anti-human IgG detection
CD22 (human) [4] = biological target: CD22 (human) (UniProt P20273); experiment: flow cytometry, Daudi cells, FITC goat anti-human IgG detection
CD22 (human) [5] = biological target: CD22 (human) (UniProt P20273); experiment: flow cytometry, MN-60 cells, FITC goat anti-human IgG detection
CD22 (human) [6] = biological target: CD22 (human) (UniProt P20273); experiment: flow cytometry, Ramos cells, FITC goat anti-human IgG detection
CD22 (human) [7] = biological target: CD22 (human) (UniProt P20273); experiment: flow cytometry, Jeko-1 cells, FITC goat anti-human IgG detection
CD22 (human) [8] = biological target: CD22 (human) (UniProt P20273); experiment: flow cytometry, RS4;11 cells, FITC goat anti-human IgG detection
CD22 (human) [9] = biological target: CD22 (human) (UniProt P20273); experiment: flow cytometry, WSU-FSCCL cells, FITC goat anti-human IgG detection
[10] = biological target: Human trophoblast cell-surface antigen (TROP-2) (human) (UniProt P09758); experiment: flow cytometry, surface, Capan-1 cells
[11] = biological target: Human trophoblast cell-surface antigen (TROP-2) (human) (UniProt P09758); experiment: flow cytometry, surface, NCI-N87 cells
[12] = biological target: CD74 (invariant chain, Ii) (human) (UniProt P04233); experiment: cell binding assay on antigen-positive cells
[13] = biological target: CD74 (invariant chain, Ii) (human) (UniProt P04233); experiment: flow cytometry, surface, Raji cells, GAH-FITC detection
[14] = biological target: CD74 (invariant chain, Ii) (human) (UniProt P04233); experiment: flow cytometry, surface, A-375 cells, GAH-FITC detection
[15] = biological target: CD74 (invariant chain, Ii) (human) (UniProt P04233); experiment: flow cytometry, surface, HuH-7 cells, GAH-FITC detection
[16] = biological target: CD74 (invariant chain, Ii) (human) (UniProt P04233); experiment: flow cytometry, surface, Hep-G2 cells, GAH-FITC detection
[17] = biological target: CD74 (invariant chain, Ii) (human) (UniProt P04233); experiment: flow cytometry, surface, Hs746T cells, GAH-FITC detection
[18] = biological target: CD74 (invariant chain, Ii) (human) (UniProt P04233); experiment: flow cytometry, surface, Capan-1 cells, GAH-FITC detection
[19] = biological target: CD74 (invariant chain, Ii) (human) (UniProt P04233); experiment: flow cytometry, surface, NCI-N87 cells, GAH-FITC detection
[20] = biological target: CD74 (invariant chain, Ii) (human) (UniProt P04233); experiment: flow cytometry, surface and cytoplasmic (permeabilized), Raji cells
[21] = biological target: CD74 (invariant chain, Ii) (human) (UniProt P04233); experiment: flow cytometry, surface and cytoplasmic (permeabilized), A-375 cells
[22] = biological target: CD74 (invariant chain, Ii) (human) (UniProt P04233); experiment: flow cytometry, surface and cytoplasmic (permeabilized), HuH-7 cells
[23] = biological target: CD74 (invariant chain, Ii) (human) (UniProt P04233); experiment: flow cytometry, surface and cytoplasmic (permeabilized), Hep-G2 cells
[24] = biological target: CD74 (invariant chain, Ii) (human) (UniProt P04233); experiment: flow cytometry, surface and cytoplasmic (permeabilized), Hs746T cells
[25] = biological target: CD74 (invariant chain, Ii) (human) (UniProt P04233); experiment: flow cytometry, surface and cytoplasmic (permeabilized), Capan-1 cells
[26] = biological target: CD74 (invariant chain, Ii) (human) (UniProt P04233); experiment: flow cytometry, surface and cytoplasmic (permeabilized), NCI-N87 cells
[27] = biological target: CD74 (invariant chain, Ii) (human) (UniProt P04233); experiment: flow cytometry, surface, Raji cells; ratio to background (GAH-FITC only)
[28] = biological target: CD74 (invariant chain, Ii) (human) (UniProt P04233); experiment: flow cytometry, surface, A-375 cells; ratio to background (GAH-FITC only)
[29] = biological target: CD74 (invariant chain, Ii) (human) (UniProt P04233); experiment: flow cytometry, surface, HuH-7 cells; ratio to background (GAH-FITC only)
[30] = biological target: CD74 (invariant chain, Ii) (human) (UniProt P04233); experiment: flow cytometry, surface, Hep-G2 cells; ratio to background (GAH-FITC only)
[31] = biological target: CD74 (invariant chain, Ii) (human) (UniProt P04233); experiment: flow cytometry, surface, Hs746T cells; ratio to background (GAH-FITC only)
[32] = biological target: CD74 (invariant chain, Ii) (human) (UniProt P04233); experiment: flow cytometry, surface, Capan-1 cells; ratio to background (GAH-FITC only)
[33] = biological target: CD74 (invariant chain, Ii) (human) (UniProt P04233); experiment: flow cytometry, surface, NCI-N87 cells; ratio to background (GAH-FITC only)
[34] = biological target: CD74 (invariant chain, Ii) (human) (UniProt P04233); experiment: flow cytometry, surface and cytoplasmic (permeabilized), Raji cells; ratio to background
[35] = biological target: CD74 (invariant chain, Ii) (human) (UniProt P04233); experiment: flow cytometry, surface and cytoplasmic (permeabilized), A-375 cells; ratio to background
[36] = biological target: CD74 (invariant chain, Ii) (human) (UniProt P04233); experiment: flow cytometry, surface and cytoplasmic (permeabilized), HuH-7 cells; ratio to background
[37] = biological target: CD74 (invariant chain, Ii) (human) (UniProt P04233); experiment: flow cytometry, surface and cytoplasmic (permeabilized), Hep-G2 cells; ratio to background
[38] = biological target: CD74 (invariant chain, Ii) (human) (UniProt P04233); experiment: flow cytometry, surface and cytoplasmic (permeabilized), Hs746T cells; ratio to background
[39] = biological target: CD74 (invariant chain, Ii) (human) (UniProt P04233); experiment: flow cytometry, surface and cytoplasmic (permeabilized), Capan-1 cells; ratio to background
[40] = biological target: CD74 (invariant chain, Ii) (human) (UniProt P04233); experiment: flow cytometry, surface and cytoplasmic (permeabilized), NCI-N87 cells; ratio to background
CEACAM6 (human) [41] = biological target: CEACAM6 (human) (UniProt P40199); experiment: flow cytometry, surface, HuH-7 cells
CEACAM6 (human) [42] = biological target: CEACAM6 (human) (UniProt P40199); experiment: flow cytometry, surface, Hep-G2 cells
CEACAM6 (human) [43] = biological target: CEACAM6 (human) (UniProt P40199); experiment: flow cytometry, surface, NCI-N87 cells
CD20 (human) [44] = biological target: T1, CD20 (human) (UniProt P11836); experiment: flow cytometry, 697 cells, FITC goat anti-human IgG detection
T1 sequence (looked up): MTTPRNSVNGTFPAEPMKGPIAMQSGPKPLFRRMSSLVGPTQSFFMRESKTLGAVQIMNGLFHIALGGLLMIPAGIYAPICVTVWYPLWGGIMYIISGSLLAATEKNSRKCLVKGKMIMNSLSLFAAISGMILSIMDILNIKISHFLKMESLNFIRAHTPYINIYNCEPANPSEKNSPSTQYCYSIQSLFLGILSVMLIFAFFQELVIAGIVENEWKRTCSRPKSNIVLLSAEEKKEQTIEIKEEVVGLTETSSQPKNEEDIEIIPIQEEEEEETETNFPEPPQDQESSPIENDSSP

CD20 (human) [45] = biological target: T1, CD20 (human); experiment: flow cytometry, REH cells, FITC goat anti-human IgG detection
CD20 (human) [46] = biological target: T1, CD20 (human); experiment: flow cytometry, Raji cells, FITC goat anti-human IgG detection
CD20 (human) [47] = biological target: T1, CD20 (human); experiment: flow cytometry, Daudi cells, FITC goat anti-human IgG detection
CD20 (human) [48] = biological target: T1, CD20 (human); experiment: flow cytometry, MN-60 cells, FITC goat anti-human IgG detection
CD20 (human) [49] = biological target: T1, CD20 (human); experiment: flow cytometry, Ramos cells, FITC goat anti-human IgG detection
CD20 (human) [50] = biological target: T1, CD20 (human); experiment: flow cytometry, Jeko-1 cells, FITC goat anti-human IgG detection
CD20 (human) [51] = biological target: T1, CD20 (human); experiment: flow cytometry, WSU-FSCCL cells, FITC goat anti-human IgG detection
CD20 (human) [52] = biological target: T1, CD20 (human); experiment: flow cytometry, RS4;11 cells, FITC goat anti-human IgG detection (background 4.1)

Sequence of CD74 (invariant chain, Ii) (human) (P04233 whole entry, change not shown): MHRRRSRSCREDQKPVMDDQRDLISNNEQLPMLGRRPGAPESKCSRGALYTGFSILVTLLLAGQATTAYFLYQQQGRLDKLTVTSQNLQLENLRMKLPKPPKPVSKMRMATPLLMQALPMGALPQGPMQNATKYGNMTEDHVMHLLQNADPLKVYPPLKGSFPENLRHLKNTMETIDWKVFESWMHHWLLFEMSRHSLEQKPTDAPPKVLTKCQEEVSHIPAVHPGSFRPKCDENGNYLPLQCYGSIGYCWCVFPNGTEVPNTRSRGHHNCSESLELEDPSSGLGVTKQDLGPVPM
Sequence of CEACAM6 (human) (P40199 35-320): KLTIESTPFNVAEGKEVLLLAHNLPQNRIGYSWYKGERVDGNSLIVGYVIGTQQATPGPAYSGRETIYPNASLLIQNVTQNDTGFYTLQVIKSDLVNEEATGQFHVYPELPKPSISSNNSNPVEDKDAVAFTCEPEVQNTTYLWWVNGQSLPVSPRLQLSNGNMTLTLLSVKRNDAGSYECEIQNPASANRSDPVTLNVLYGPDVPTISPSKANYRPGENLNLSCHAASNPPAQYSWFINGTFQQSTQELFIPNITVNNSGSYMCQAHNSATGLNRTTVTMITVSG
Sequence of Human trophoblast cell-surface antigen (TROP-2) (human) (P09758 27-323): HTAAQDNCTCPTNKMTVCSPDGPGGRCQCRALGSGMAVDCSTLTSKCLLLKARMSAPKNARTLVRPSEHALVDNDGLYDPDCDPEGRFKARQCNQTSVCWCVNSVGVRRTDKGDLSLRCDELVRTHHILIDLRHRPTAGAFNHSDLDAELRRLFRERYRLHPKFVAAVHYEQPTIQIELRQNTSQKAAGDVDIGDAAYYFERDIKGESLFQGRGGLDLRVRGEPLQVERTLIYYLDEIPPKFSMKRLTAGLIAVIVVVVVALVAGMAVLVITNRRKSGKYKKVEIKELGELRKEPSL

Molecule: epratuzumab (hLL2), humanized anti-CD22 IgG1 (antibody)
- Median fluorescence (CD22 (human) [1]): 16
- Median fluorescence (CD22 (human) [2]): 22.9
- Median fluorescence (CD22 (human) [3]): 45.9
- Median fluorescence (CD22 (human) [4]): 145
- Median fluorescence (CD22 (human) [5]): 10.3
- Median fluorescence (CD22 (human) [6]): 40.8
- Median fluorescence (CD22 (human) [7]): 11.2
- Median fluorescence (CD22 (human) [8]): 23.3
- Median fluorescence (CD22 (human) [9]): 7.7

B2: veltuzumab (hA20), humanized anti-CD20 IgG1 (antibody, from a related filing, V domains shown, part only)
VH: QVQLQQSGAEVKKPGSSVKVSCKASGYTFTSYNMHWVKQAPGQGLEWIGAIYPGNGDTSYNQKFKGKATLTADESTNTAYMELSSLRSEDTAFYYCARSTYYGGDWYFDVWGQGTTVTVSS
VL: DIQLTQSPSSLSASVGDRVTMTCRASSSVSYIHWFQQKPGKAPKPWIYATSNLASGVPVRFSGSGSGTDYTFTISSLQPEDIATYYCQQWTSNPPTFGGGTKLEIK
- Median fluorescence (CD20 (human) [44]): 6.9
- Median fluorescence (CD20 (human) [45]): 12.3
- Median fluorescence (CD20 (human) [46]): 422
- Median fluorescence (CD20 (human) [47]): 815
- Median fluorescence (CD20 (human) [48]): 21.5
- Median fluorescence (CD20 (human) [49]): 620
- Median fluorescence (CD20 (human) [50]): 605
- Median fluorescence (CD20 (human) [51]): 97.4
- Median fluorescence (CD20 (human) [52]): 3.7

Other lines, results leading:

- MFI [10]: 237
- MFI [11]: 795
Molecule: humanized RS7 IgG (hRS7), anti-TROP-2 humanized antibody

- Kd [12]: 770 pM
- MFI [13]: 59
- MFI [14]: 16
- MFI [15]: 8
- MFI [16]: 9
- MFI [17]: 17
- MFI [18]: 22
- MFI [19]: 5
- MFI [20]: 143
- MFI [21]: 185
- MFI [22]: 114
- MFI [23]: 156
- MFI [24]: 144
- MFI [25]: 248
- MFI [26]: 220
- MFI Ratio hLL1:bkgd [27]: 19.6
- MFI Ratio hLL1:bkgd [28]: 5.3
- MFI Ratio hLL1:bkgd [29]: 1.6
- MFI Ratio hLL1:bkgd [30]: 1.5
- MFI Ratio hLL1:bkgd [31]: 2.1
- MFI Ratio hLL1:bkgd [32]: 1.8
- MFI Ratio hLL1:bkgd [33]: 1.3
- MFI Ratio hLL1:bkgd [34]: 28.6
- MFI Ratio hLL1:bkgd [35]: 30.8
- MFI Ratio hLL1:bkgd [36]: 28.5
- MFI Ratio hLL1:bkgd [37]: 31.2
- MFI Ratio hLL1:bkgd [38]: 28.8
- MFI Ratio hLL1:bkgd [39]: 49.6
- MFI Ratio hLL1:bkgd [40]: 36.7
Molecule: milatuzumab (hLL1), humanized anti-CD74 antibody

- MFI (CEACAM6 (human) [41]): 81
- MFI (CEACAM6 (human) [42]): 175
- MFI (CEACAM6 (human) [43]): 1120
B1: hMN-15, humanized anti-CEACAM6 antibody (antibody, from a related filing, IgG1, V domains shown)
VH: QVQLVESGGGVVQPGRSLRLSCSSSGFALTDYYMSWVRQAPGKGLEWLGFIANKANGHTTDYSPSVKGRFTISRDNSKNTLFLQMDSLRPEDTGVYFCARDMGIRWNFDVWGQGTPVTVSS
VL: DIQLTQSPSSLSASVGDRVTMTCSASSRVSYIHWYQQKPGKAPKRWIYGTSTLASGVPARFSGSGSGTDFTFTISSLQPEDIATYYCQQWSYNPPTFGQGTKVEIKR
